Columns and labels:
[1] = target: T1, human OX40 on cells (human, UniProt P43489 29-277); assay: FACS competition on hOX40-293 cells against biotin-OX40.5 (spike biotOX.5 @ 0.4 ug/mL, streptavidin-APC); partial inhibition, FL4-MFI falls from about 8700 to about 6400; the table gives no unit, axis in nM
T1 construct: also called hOX40-293 cells; hOX40-HT1080
T1 sequence: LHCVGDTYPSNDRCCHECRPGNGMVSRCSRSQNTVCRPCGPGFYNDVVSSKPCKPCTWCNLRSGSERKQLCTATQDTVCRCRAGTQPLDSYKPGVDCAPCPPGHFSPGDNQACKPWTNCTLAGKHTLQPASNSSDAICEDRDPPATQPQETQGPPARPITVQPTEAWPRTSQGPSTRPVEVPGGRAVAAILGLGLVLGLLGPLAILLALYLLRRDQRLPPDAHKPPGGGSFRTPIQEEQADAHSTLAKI
Method: (§1) This experiment was performed to test the cross-blocking properties of various anti-OX40 antibodies to assess binding specificities. […] Cells were washed and if necessary further incubated in the presence of streptavidin-APC conjugate under the same conditions. After the final wash, cells were analyzed on a FACSCanto flow cytometer (BD Bioscience, San Jose, Calif.). Mean fluorescence intensity (MFI) signal was proportional to bound conjugated antibody.

[2] = target: T1, human OX40 on cells; assay: FACS, blocking of OX40L-His (0.2 µg/mL) binding to hOX40-293 cells
Method: Briefly, 293 cells stably transfected with human OX40 were first pre-incubated with varying concentrations of anti-OX40 antibodies. […] The fluorescence intensity of the staining was measured using a FACSCanto II flow cytometer (Becton Dickinson).

[3] = target: T1, human OX40 on cells; assay: cell-based or functional assay
[4] = target: T2, cynomolgus OX40 on cells (cynomolgus, UniProt P43489 29-277 (human entry)); assay: FACS, activated cyno T cells; mean ± SD, n=4
T2 construct: also called cynoOX40-CHO
T2 chain: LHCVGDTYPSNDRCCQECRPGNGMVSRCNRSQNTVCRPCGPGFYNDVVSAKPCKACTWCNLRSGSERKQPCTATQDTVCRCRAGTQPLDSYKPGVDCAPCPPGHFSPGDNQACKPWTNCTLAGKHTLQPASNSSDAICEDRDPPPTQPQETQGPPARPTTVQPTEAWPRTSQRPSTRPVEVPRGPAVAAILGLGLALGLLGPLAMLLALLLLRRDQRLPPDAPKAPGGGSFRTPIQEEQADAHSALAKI
Method: (§2) Briefly, cells were activated for several days before the binding assay in order to induce OX40 expression. Total leukocytes were isolated from cynomolgus macaque peripheral blood by lysis of red blood cells using an ammonium chloride buffer. The leukocytes were then cultured for four to five days with in flasks pre-coated with anti-human CD3 plus anti-human CD28 antibodies that cross-react with cynomolgus macaque, in the presence of recombinant human IL-2, in order to expand and activate T cells. On the day of the assay, the cells were harvested and stained with a titration of each anti-OX40 antibody. Bound antibodies were detected with a fluorescently conjugated anti-human IgG polyclonal secondary antibody, and the cells were co-stained for CD4 and CD25 to detect activated CD4 T cells. The fluorescence intensity of the staining was measured using a FACSCanto II flow cytometer (Becton Dickinson). The geometric mean fluorescence intensity (GMFI) or median fluorescence intensity (MedFI) of anti-OX40 antibody staining was calculated for the CD4+CD25+ population (FACSDiva software). Dose-response curves were generated and EC50s for antibody binding were calculated using GraphPad Prism software.

[5] = target: T1, human OX40 on cells; assay: FACS competition on HT1080-hOX40 cells against APC-OX40.1 (FL2 MFI); the table gives no unit, axis 'Ab conc nM'
Method: as §1

[6] = target: T3, his-tagged soluble human OX40 (huOX40-6xhis) (human, UniProt P43489 29-214); assay: SPR, mAb captured on anti-human CH1, OX40-6XHIS analyte, 1:1 fit
T3 construct: made in-house; also called Human-OX40-6XHIS; hOX40; not shown: hexahistidine tag
T3 sequence: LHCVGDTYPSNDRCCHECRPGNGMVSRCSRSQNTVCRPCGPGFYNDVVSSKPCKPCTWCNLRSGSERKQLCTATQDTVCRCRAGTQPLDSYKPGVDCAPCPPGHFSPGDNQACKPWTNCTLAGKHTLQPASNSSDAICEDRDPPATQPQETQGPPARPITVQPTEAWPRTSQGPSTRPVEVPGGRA
Method: The affinity of several OX40 antibodies for soluble human OX40 was tested by SPR analysis. […] Human-OX40-6XHIS antigen in either a single concentration of 400 nM or a 1:2 serial dilution from 400 nM was used. Experiments were carried out on BIACORE® T200 or BIACORE® 3000 SPR instruments. Data was fit to a 1:1 model.

[7] = target: T1, human OX40 on cells; assay: FACS, activated human T cells; mean ± SD, n=3
Method: (§3) Cells were activated for several days before the binding assay in order to induce OX40 expression. Briefly, PBMCs were cultured for three or four days with magnetic beads coated with anti-human CD3 plus anti-human CD28, in the presence of recombinant human IL-2. On the day of the assay, the beads were removed and the cells stained with a titration of each anti-OX40 antibody. Bound antibodies were detected with a fluorescently conjugated anti-human IgG polyclonal secondary antibody, and the cells were co-stained for CD4 and CD25 to detect activated CD4 T cells. The fluorescence intensity of the staining was measured using a FACSCanto II flow cytometer (Becton Dickinson). The geometric mean fluorescence intensity (GMFI) or median fluorescence intensity (MedFI) of anti-OX40 antibody staining was calculated for the CD4+CD25+ population (FACSDiva software). EC₅₀s for antibody binding were calculated using GraphPad Prism software.

[8] = target: T1, human OX40 on cells; assay: FACS, activated human T cells; mean ± SD, n=2
Method: as §3

[9] = target: T1, human OX40 on cells; assay: cell-based or functional assay; remark: listed apart in the source
[10] = target: T2, cynomolgus OX40 on cells; assay: FACS, activated cyno T cells; mean ± SD, n=3
Method: as §2

[11] = target: T1, human OX40 on cells; assay: FACS, activated primary human CD4+/CD25+ T cells, purified recombinant antibody, fluorescent anti-human IgG secondary (APC GMFI)
Method: as §3

[12] = target: T2, cynomolgus OX40 on cells; assay: FACS, activated primary cynomolgus macaque CD4+/CD25+ T cells, purified recombinant antibody, fluorescent anti-human IgG secondary (APC GMFI)
Method: as §2
The same experiment was performed with anti-OX40 antibodies with variable region substitutions.

| Binder | Proliferation EC50, CD4 T cells + CHO-CD3-CD32A [3] [nM] | EC50 [7] [nM] | IFNγ EC50, CD4 T cells + CHO-CD3-CD32A [3] [nM] | IL-2 EC50, SEB PBMC, donor BMS-001 [9] [nM] | IL-2 EC50, SEB PBMC, donor BMS-004 [9] [nM] | IL-2 EC50, SEB PBMC, donor BMS-009 [9] [nM] | IL-2 EC50, SEB PBMC, donor BMS-012 [9] [nM] | IL-2 EC50, SEB PBMC, donor BMS-015 [9] [nM] | IL-2 EC50, SEB PBMC, donor BMS-016 [9] [nM] | IL-2 EC50, SEB PBMC, donor WB10024 [9] [nM] | IL-2 EC50, SEB PBMC, donor WB10025 [9] [nM] | IL-2 EC50, SEB PBMC, donor WB10026 [9] [nM] | IL-2 EC50, SEB PBMC, donor WB10027 [9] [nM] | IL-2 EC50, SEB PBMC, donor WB10137 [9] [nM] | IL-2 Mean EC50, SEB PBMC, all donors [9] [nM] | other results |
| --- | --- | --- | --- | --- | --- | --- | --- | --- | --- | --- | --- | --- | --- | --- | --- | --- |
| 3F4 (antibody, V domains shown, also called 3F4.G11.D2; 3F4.G11) VH: QVQLVQSGAEVKKPGASVKVSCKASGNTFTSYDVNWVRQATGQGLEWMGWMNPNSGNTGYAPKFQGRVTMTRNTSISTAYMELSSLRSEDTAVYYCARIYSSSYNWFDPWGQGTLVTVSS VL: EIVLTQSPATLSLSPGERATLSCRASQSVSSYLAWYQQKPGQAPRLLIYDASNRATGIPARFSGSGSGTDFTLTISSLEPEDFAVYYCQQRSNWPLTFGGGTKVEIK | 0.016 | 0.19 | – | – | – | – | – | – | – | – | – | – | – | – | – | EC50 [1]: 3.71 nM; EC50 [2]: 0.54 nM; EC50 [4]: 0.37 nM; IC50 [5]: 0.706 nM; Kd [6]: 7.13 nM; koff [6]: 0.000379 s⁻¹; kon [6]: 53100 M⁻¹ s⁻¹ |
| OX40.18 (antibody, human IgG1, kappa, V domains shown, g1f) VH: QVQLVQSGAEVKKPGASVKVSCKASGYTFTSYDVNWVRQATGQGLEWMGWMNPNSGNTGYAPKFQGRVTMTRDTSISTAYMELSSLRSEDTAVYYCARIYSSSYNWFDYWGQGTLVTVSS VL: EIVLTQSPATLSLSPGERATLSCRASQSVSSYLAWYQQKPGQAPRLLIYDASNRATGIPARFSGSGSGTDFTLTISSLEPEDFAVYYCQQRSNWPLTFGGGTKVEIKR | 0.23 | – | 0.49 | ~84.8 | 2.43 | 3.21 | ~1.67 | > 100 | > 100 | ~3.17 | ~1.14 | 3.02 | ~3.27 | > 100 | 2.89 | EC50 [8]: 3.15 nM |
| OX40.17 (antibody, human IgG1, kappa, V domains shown) VH: EVQLVESGGGLVQPGGSLRLSCAASGFTFSSYDMHWVRQTTGKGLEWVSVIGTAGDTYYPGSVKGRFTISRENAKNSLYLQMNSLRAGDTAVYYCARGGMGNYFDYWGQGTLVTVSS VL: EIVLTQSPATLSLSPGERATLSCRASQSVSSYLAWYQQKPGQAPRLLIYDASNRATGIPARFSGSGSGTDFTLTISSLEPEDFAVYYCQQRSNWPLTFGGGTKVEIKR | 0.009 | 0.26 | 0.044 | 0.41 | 1.03 | 0.97 | 1.74 | 1.16 | 1.4 | 1.06 | 1.35 | 1.68 | 1.15 | 0.92 | 1.17 | EC50 [10]: 0.52 nM; EC50 (read off the curve) [11]: ~0.2 nM; EC50 (read off the curve) [12]: ~0.4 nM |

— US20200399385A1 (Bristol-Myers Squibb, published 2020)
